# Data published in publication PMC13630248 (PLOS Biology, 2026).
# B1: VA14_26 IgG (antibody, V domains shown)
# VH: QVQLQQWGAGLLKPSDTLSLTCGISGGPFSGYYWSWIRQPPGKGLEWLGEINHSGITTYNPSLKSRGTISVDTSKRQISLKLASVTAADTAVYYCARFAYGDYGWDYSSDMDVWGKGTTVTVSS
# VL: DIQLTQSPSTLSASVGDRVTITCRASQSISTWLAWHQQIPGKAPKLLIYRASTLQSGVPSRFSGSGSGTEFTLTISSLQPDDFATYYCQQYYSVRTFGQGTKVDIK
# notes: copies: 2 + 2
# B2: V1WT_06 IgG (antibody, V domains shown)
# VH: EVQLVQSGAEVKKPGASVKVSCKASGYTFSSHGISWVRQAPGQGLEWMGWISTYNGNTNSAQNLQGRVTMTADTSTSTAYMELRSLRSDDTAVYYCARGPWGYCSGTSCYYWTPDNPAYSYHGMDVWGQGTTVTVSS
# VL: not shown
# notes: copies: 2 + 2
# B3: V1WT_06 Fab (Fab, V domains shown)
# VH: B2 VH
# VL: not shown
# B4: V1WT_41 IgG (antibody, V domains shown)
# VH: QVQLQESGPGLVKPSETVSVTCTVSGGSITRSNYYWGWIRQPPGKGLEWIGSIFYNGNTNYNPSLKSRLTISVDTSKNQFSLKLSSVTAADTAVYYCARTAPYYYDRSGYYQKEEYFQRWGQGTLVTVSS
# VL: EIVMTQSPSTLSASVGDRVTITCRASQSISTWLAWYQQKPGKAPNLLIYQASSLESGVPSRFSGSGSGTEFTLTISSLQPDDFATYYCQQYNNYPRTFGQGTKLEIK
# notes: copies: 2 + 2
# What was measured:
# [1] = target: T1, SARS-CoV-2 RBD (recombinant receptor binding domain of Spike) (SARS-CoV-2, UniProt P0DTC2); experiment: SPR; conditions: both partners purified
# [2] = target: RpYN06 Spike, full-length, on the cell surface (Betacoronavirus sp. RpYN06, strain …, strain); experiment: flow cytometry on cells; conditions: one partner purified
# [3] = target: T1, SARS-CoV-2 RBD (recombinant receptor …); experiment: ELISA; conditions: both partners purified
Binder,binding result [1],binding result [2],binding result [3]
B1,binds,binds,
B2,,binds,
B3,,,binds
B4,,binds,binds
